Assay results as given in US20240425837A1 (Novo Nordisk, published 2024).

Target: human plasma-derived coagulation Factor X (FX) (human) (UniProt P00742)
Test: cell-based or functional assay

Chain of human plasma-derived coagulation Factor X (FX) (human) (P00742 41-179, chain 1 of 2): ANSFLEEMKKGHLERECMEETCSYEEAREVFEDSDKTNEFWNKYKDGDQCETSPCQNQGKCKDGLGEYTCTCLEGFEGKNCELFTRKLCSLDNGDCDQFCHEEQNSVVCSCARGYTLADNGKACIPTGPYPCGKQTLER
Chain of human plasma-derived coagulation Factor X (FX) (human) (P00742 183-488, chain 2 of 2): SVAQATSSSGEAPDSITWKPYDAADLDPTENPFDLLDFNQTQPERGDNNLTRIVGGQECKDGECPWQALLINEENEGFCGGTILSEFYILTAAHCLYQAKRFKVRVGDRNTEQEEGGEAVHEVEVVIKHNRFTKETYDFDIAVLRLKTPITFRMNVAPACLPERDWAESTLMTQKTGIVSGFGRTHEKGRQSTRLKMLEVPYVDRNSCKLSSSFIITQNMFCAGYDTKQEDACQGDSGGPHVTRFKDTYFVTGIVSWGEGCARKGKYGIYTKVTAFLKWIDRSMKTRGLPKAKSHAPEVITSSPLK

“Emicizumab sequence identical analogue (SIA) (bispecific antibody)” gave a KM of FX activation by 0.1 nM FIXa with phospholipid vesicles, antibody at 300 nM of 0.0535 µM.
